The text below walks through data of patent US20100130721A1.

The chains are these.
B1: fusion protein PG2 (designed binder)
chain: AYRLILNGRTLRGETTTEAVDAATAERVFRQYANDNGVDGEWTYDDATRTFTVTERPEVIDASELTPAVTPGAYRLILNGRTLRGETTTEAVDAATAERVFRQYANDNGVDGEWTYDDATRTFTVTERPEVIDASELTPAVTGGGGCADDDDDDHHHHHH
B2: fusion protein PL3 (designed binder)
chain: ATIRANLIYADGRTQTAEFRGTFEEATAEAYRYADLLPRENGRYTVDVADRGYTLNIRFAPGATIRANLIYADGRTQTAEFRGTFEEATAEAYRYADLLPRENGRYTVDVADRGYTLNIRFAPGATIRANLIYADGRTQTAEFRGTFEEATAEAYRYADLLPRENGRYTVDVADRGYTLNIRFAGGGGGCADDDDDDHHHHHH
B3: fusion protein PL1 (designed binder)
chain: ATIRANLIYADGRTQTAEFRGTFEEATAEAYRYADLLARENGRYTVDVADRGYTLNIRFAGGGGGCADDDDDDHHHHHH
B4: fusion protein PG1 (designed binder)
chain: AYRLILNGRTLRGETTTEAVDAATAERVFRQYANDNGVDGEWTYDDATRTFTVTERPEVIDASELTPAVTGGGGCADDDDDDHHHHHH
B5: fusion protein PG3 (designed binder)
chain: AYRLILNGRTLRGETTTEAVDAATAERVFRQYANDNGVDGEWTYDDATRTFTVTERPEVIDASELTPAVTPGAYRLILNGRTLRGETTTEAVDAATAERVFRQYANDNGVDGEWTYDDATRTFTVTERPEVIDASELTPAVTPGAYRLILNGRTLRGETTTEAVDAATAERVFRQYANDNGVDGEWTYDDATRTFTVTERPEVIDASELTPAVTGGGGCADDDDDDHHHHHH
B6: fusion protein PL2 (designed binder)
chain: ATIRANLIYADGRTQTAEFRGTFEEATAEAYRYADLLPRENGRYTVDVADRGYTLNIRFAPGATIRANLIYADGRTQTAEFRGTFEEATAEAYRYADLLPRENGRYTVDVADRGYTLNIRFAGGGGGCADDDDDDHHHHHH

For this test, the target named is human polyclonal IgG (human). The test can be described thus: SPR (Biacore), His-tagged fusion protein captured on Ni-NTA chip, human IgG injected. In general terms: SPR reads the build-up and loss of mass on a sensor chip optically.
In the case of B1, the Kd (in general, the concentration at which binding is half-saturated) is 0.115 nM; the koff (commonly the first-order rate constant of dissociation) was 0.0001 s⁻¹; the kon – broadly, a measure of how fast the partners come together – was found to be 864000 M⁻¹ s⁻¹.
B2 registered a Kd of 0.788 nM, a koff of 0.000237 s⁻¹ and an on-rate (kon) of 301000 M⁻¹ s⁻¹.
B3: the Kd was 2.06 nM, the koff amounted to 0.000312 s⁻¹ and the kon is 151000 M⁻¹ s⁻¹.
In turn, B4 came in with a Kd of 0.384 nM, a koff of 0.000154 s⁻¹ and an on-rate (kon) of 401000 M⁻¹ s⁻¹.
The matching figures for B5: 0.068 nM, 7.63e-05 s⁻¹ and 1.12e+06 M⁻¹ s⁻¹.
B6 yielded a Kd of 1.34 nM, a koff of 0.000264 s⁻¹ and a kon of 246000 M⁻¹ s⁻¹.
